Data set [1] has as its target T1, translin (untagged, co-expressed);TRAX (human;human, UniProt Q15631;Q99598 1-228;1-290, |). Put plainly: UV-laser crosslinking (248 nm); DNA covalently linked to TRAX subunit; silver stain; 25 mM Tris-HCl pH 8.0, 100 mM NaCl, 1 mM EDTA, 30 min; temperature not stated; 4.5% native PAGE in 0.5x TBE. The conditions noted are these: protein: recombinant;recombinant; tags: none;N-terminal 6xHis.

The target in the data set “translinB2 (untagged, …)” is translinB2 (untagged, co-expressed);TRAXB2 (human;human, UniProt Q15631;Q99598 1-228;1-290, R86T;H88N;H90N|Q115L;H117N;R118A). The experiment in a line: EMSA; 100 nM complex, 100 nM DNA; 25 mM Tris-HCl pH 8.0, 100 mM NaCl, 1 mM EDTA, 30 min; temperature not stated; 4.5% native PAGE in 0.5x TBE. To be noted: protein: recombinant;recombinant; tags: none;N-terminal 6xHis; label: 5'-32P (unlabeled in agarose EMSA). On the technique in general: Mobility shift assays separate free from complexed probe on a gel.
Chain of translinB2 (untagged, co-expressed);TRAXB2 (Q15631 whole entry R86T/H88N/H90N, chain 1 of 2): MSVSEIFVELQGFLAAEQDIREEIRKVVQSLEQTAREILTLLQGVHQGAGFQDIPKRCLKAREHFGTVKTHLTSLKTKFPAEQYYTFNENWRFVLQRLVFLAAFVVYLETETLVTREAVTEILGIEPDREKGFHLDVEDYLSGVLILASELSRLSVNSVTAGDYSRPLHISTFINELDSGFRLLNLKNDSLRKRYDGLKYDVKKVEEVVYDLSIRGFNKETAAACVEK
Chain of translinB2 (untagged, co-expressed);TRAXB2 (Q99598 whole entry Q115L/H117N/R118A, chain 2 of 2): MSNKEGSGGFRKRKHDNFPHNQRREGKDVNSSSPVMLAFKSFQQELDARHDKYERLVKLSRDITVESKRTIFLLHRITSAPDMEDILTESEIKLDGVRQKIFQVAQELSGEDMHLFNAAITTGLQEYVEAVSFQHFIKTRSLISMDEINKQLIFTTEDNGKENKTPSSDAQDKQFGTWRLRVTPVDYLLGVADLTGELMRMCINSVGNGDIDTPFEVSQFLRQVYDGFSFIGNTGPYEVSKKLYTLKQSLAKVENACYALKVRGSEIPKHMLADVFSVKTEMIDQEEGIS

Data set [2] concerns the target translinB2 (untagged, co-expressed);TRAX (human;human, UniProt Q15631;Q99598 1-228;1-290, R86T;H88N;H90N|). The description is as above. The conditions noted are these: protein: recombinant;recombinant; tags: none;N-terminal 6xHis; label: 5'-32P (unlabeled in agarose EMSA).
The target in data set [3] is translin (untagged, co-expressed);TRAXB2 (human;human, UniProt Q15631;Q99598 1-228;1-290, |Q115L;H117N;R118A). The description is as above. The conditions noted are these: protein: recombinant;recombinant; tags: none;N-terminal 6xHis; label: 5'-32P (unlabeled in agarose EMSA).
Chain of translin (untagged, co-expressed);TRAXB2 (Q15631 whole entry, chain 1 of 2): as the sequence (Q15631 whole entry R86T/H88N/H90N, chain 1 of 2) above, with T86R, N88H, N90H counted along it
Chain of translin (untagged, co-expressed);TRAXB2 (Q99598 whole entry Q115L/H117N/R118A, chain 2 of 2): as the sequence (Q99598 whole entry Q115L/H117N/R118A, chain 2 of 2) above
The target of data set [4] is T1, translin (untagged, co-expressed);TRAX. The data set is described as above. The conditions noted are these: protein: recombinant;recombinant; tags: none;N-terminal 6xHis; label: 5'-32P (unlabeled in agarose EMSA).
Data set [5] concerns the target translinB3 (untagged, co-expressed);TRAXB2 (human;human, UniProt Q15631;Q99598 1-228;1-290, R192T;K193N;R194S;Y195N|Q115L;H117N;R118A). The experiment in a line: EMSA; 100 nM complex, 200 nM DNA; 25 mM Tris-HCl pH 8.0, 100 mM NaCl, 1 mM EDTA, 30 min; temperature not stated; 4.5% native PAGE in 0.5x TBE. The conditions noted are these: protein: recombinant;recombinant; tags: none;N-terminal 6xHis; label: 5'-32P (unlabeled in agarose EMSA).

Data set [6] concerns the target translinB3 (untagged, co-expressed);TRAXB3 (human;human, UniProt Q15631;Q99598 1-228;1-290, R192T;K193N;R194S;Y195N|K241N;K242T;Y244N). The description is as above. The conditions noted are these: protein: recombinant;recombinant; tags: none;N-terminal 6xHis; label: 5'-32P (unlabeled in agarose EMSA).
In data set [7] the target is translinB3 (untagged, co-expressed);TRAX (human;human, UniProt Q15631;Q99598 1-228;1-290, R192T;K193N;R194S;Y195N|). The data set is described as above. To be noted: protein: recombinant;recombinant; tags: none;N-terminal 6xHis; label: 5'-32P (unlabeled in agarose EMSA).
Chain of translinB3 (untagged, co-expressed);TRAX (Q15631 whole entry R192T/K193N/R194S/Y195N, chain 1 of 2): as the sequence (Q15631 whole entry R86T/H88N/H90N, chain 1 of 2) above, with T86R, N88H, N90H, R192T, K193N, R194S, Y195N counted along it
Chain of translinB3 (untagged, co-expressed);TRAX (Q99598 whole entry, chain 2 of 2): as the sequence (Q99598 whole entry Q115L/H117N/R118A, chain 2 of 2) above, with L115Q, N117H, A118R counted along it
The next data set has as its target translinB3 (human, UniProt Q15631 1-228, R192T;K193N;R194S;Y195N). The experiment in a line: EMSA; 100 nM octamer, 200 nM labeled DNA; 25 mM Tris-HCl pH 8.0, 100 mM NaCl, 1 mM EDTA, 30 min; temperature not stated; 4.5% native PAGE in 0.5x TBE. To be noted: protein: recombinant; tags: N-terminal 6xHis; chain copies: 8; label: 5'-32P (unlabeled in agarose EMSA).
Data set [8] concerns the target T1, translin (untagged, co-expressed);TRAX. Put plainly: UV-laser crosslinking (248 nm); DNA covalently linked to TRAX subunit; 25 mM Tris-HCl pH 8.0, 100 mM NaCl, 1 mM EDTA, 30 min; temperature not stated; 4.5% native PAGE in 0.5x TBE. The conditions noted are these: protein: recombinant;recombinant; tags: none;N-terminal 6xHis; label: 5'-32P (unlabeled in agarose EMSA).

T1 sequence (Q15631 whole entry, chain 1 of 2): as the sequence (Q15631 whole entry R86T/H88N/H90N, chain 1 of 2) above, with T86R, N88H, N90H counted along it
T1 sequence (Q99598 whole entry, chain 2 of 2): as the sequence (Q99598 whole entry Q115L/H117N/R118A, chain 2 of 2) above, with L115Q, N117H, A118R counted along it
Chain of translinB2 (untagged, co-expressed);TRAX (Q15631 whole entry R86T/H88N/H90N, chain 1 of 2): as the sequence (Q15631 whole entry R86T/H88N/H90N, chain 1 of 2) above
Chain of translinB2 (untagged, co-expressed);TRAX (Q99598 whole entry, chain 2 of 2): as the sequence (Q99598 whole entry Q115L/H117N/R118A, chain 2 of 2) above, with L115Q, N117H, A118R counted along it
Chain of translinB3 (untagged, co-expressed);TRAXB3 (Q15631 whole entry R192T/K193N/R194S/Y195N, chain 1 of 2): as the sequence (Q15631 whole entry R86T/H88N/H90N, chain 1 of 2) above, with T86R, N88H, N90H, R192T, K193N, R194S, Y195N counted along it
Chain of translinB3 (untagged, co-expressed);TRAXB3 (Q99598 whole entry K241N/K242T/Y244N, chain 2 of 2): as the sequence (Q99598 whole entry Q115L/H117N/R118A, chain 2 of 2) above, with L115Q, N117H, A118R, K241N, K242T, Y244N counted along it
Chain of translinB3 (untagged, co-expressed);TRAXB2 (Q15631 whole entry R192T/K193N/R194S/Y195N, chain 1 of 2): as the sequence (Q15631 whole entry R86T/H88N/H90N, chain 1 of 2) above, with T86R, N88H, N90H, R192T, K193N, R194S, Y195N counted along it
Chain of translinB3 (untagged, co-expressed);TRAXB2 (Q99598 whole entry Q115L/H117N/R118A, chain 2 of 2): as the sequence (Q99598 whole entry Q115L/H117N/R118A, chain 2 of 2) above
Chain of translinB3 (Q15631 whole entry R192T/K193N/R194S/Y195N): as the sequence (Q15631 whole entry R86T/H88N/H90N, chain 1 of 2) above, with T86R, N88H, N90H, R192T, K193N, R194S, Y195N counted along it

For CCTGTAGTAATGGCTGCATTGAACAGATGCATATCTTCCCCTG (ssDNA) [43-mer (trxB2 reverse primer)], the binding result in data set [1] was “binds”.

Consider GCCCTCCTGCCCTCCTTCCGCGGG (ssDNA) [Bcl-CL1 24-mer], for which the binding result in the data set with translinB2 (untagged, …) was “binds”; in [2], “binds”; in data set [3] it was “binds”; in data set [4] it was “binds”; in the data set with translinB3 (untagged, …) [5], “no binding”; with translinB3 (untagged, …) [6], “no binding”. In addition, the values for the binding result (in data set [7]; with translinB3; in data set [8]) were “no binding”, “no binding” and “binds”, respectively.

The values above are taken from PMC3299731 (PLoS ONE, 2012).
